Data published in patent publication US20200078439A1.

Molecular target: HLA-DR molecules of the vaccinated patients
Assay: cell-based or functional assay

TLGEFLKLDRERAKN [BIR-002 (Survivin 97-111: …)]
immuno-response in vaccinated patients in vivo (IFN-g ELISPOT, +/- ICS) (out of 19 patients): 16
